For test [1], the target named is T1, extracellular domain (ECD) of human IGSF11 (VSIG3), HIS-tagged (human, UniProt Q5DX21 23-241, biotinylated in the ELISA of Example 4 (site not stated)).
T1 construct: also called HIS-IGSF11; IGSF11-HIS; not shown: HIS6 tag
T1 sequence: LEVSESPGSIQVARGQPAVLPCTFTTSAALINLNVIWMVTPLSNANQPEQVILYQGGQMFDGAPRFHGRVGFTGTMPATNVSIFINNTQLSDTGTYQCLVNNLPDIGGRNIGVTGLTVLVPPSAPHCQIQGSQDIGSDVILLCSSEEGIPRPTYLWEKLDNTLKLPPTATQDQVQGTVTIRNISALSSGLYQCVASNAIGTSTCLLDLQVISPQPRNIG
Description: ELISA, coated IGSF11-HIS, IgG1 format; EC50 grade (* >1 nM, ** 0.05-1 nM, *** 0.02-0.05 nM, **** <0.02 nM). A general note: An ELISA detects its analyte on a solid surface through an enzyme-linked reagent.

In test [2] the target is T2, extracellular domain (ECD) of murine IGSF11, biotinylated (mouse, UniProt P0C673 23-240, biotinylated (site not stated)).
T2 construct: also called Mouse IGSF11; murine IGSF11 protein
T2 sequence: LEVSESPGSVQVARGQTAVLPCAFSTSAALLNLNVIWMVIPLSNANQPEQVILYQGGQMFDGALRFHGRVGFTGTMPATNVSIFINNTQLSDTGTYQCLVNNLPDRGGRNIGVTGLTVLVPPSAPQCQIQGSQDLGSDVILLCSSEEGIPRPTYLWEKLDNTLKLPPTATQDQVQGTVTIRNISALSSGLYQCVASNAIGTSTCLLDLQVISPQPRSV
Description: ELISA, scFv; RFU grade (*** >1.0, ** 0.5-1.0, * 0.1-0.5).

The target of test [3] is T3, extracellular domain (ECD) of human IGSF11 (VSIG3), biotinylated (human, UniProt Q5DX21 23-241, biotinylated (site not stated)).
T3 construct: also called human IGSF11 protein
T3 sequence: T1 sequence
The test is described as above.

In test [4] the target is T4, human IGSF11 (VSIG3) expressed on the surface of cells (human, UniProt Q5DX21 23-431).
T4 construct: one molecule for all cell lines; the cell line is named under assay; also called IGSF11-expressing cells; HEK-OE
T4 sequence: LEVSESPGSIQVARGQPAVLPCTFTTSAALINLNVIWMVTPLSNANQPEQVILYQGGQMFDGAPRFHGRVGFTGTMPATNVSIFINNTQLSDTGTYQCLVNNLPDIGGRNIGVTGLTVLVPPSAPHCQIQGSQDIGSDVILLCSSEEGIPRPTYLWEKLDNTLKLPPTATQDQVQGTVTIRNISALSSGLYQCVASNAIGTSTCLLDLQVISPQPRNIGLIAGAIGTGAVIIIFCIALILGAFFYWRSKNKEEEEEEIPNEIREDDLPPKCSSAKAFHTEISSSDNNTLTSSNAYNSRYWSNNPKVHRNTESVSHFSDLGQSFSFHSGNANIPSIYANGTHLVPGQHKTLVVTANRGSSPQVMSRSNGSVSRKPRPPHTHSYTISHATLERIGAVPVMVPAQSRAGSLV
Description: FACS, IgG1 format, recombinant HEK cells expressing IGSF11 (HEK-OE). In general terms: In flow cytometry, cells or beads pass a laser one at a time.

Test [5] deals with T4, human IGSF11 (VSIG3) expressed on the …. Description: FACS on DMS 273 cells treated with IGSF11 siRNA (KD: target knocked down, specificity control).
The target is the same in test [6]. Description: FACS on M579-A2-luc cells treated with scrambled control siRNA (SC).
Test [7] shares this target. Description: FACS on M579-A2-luc cells treated with IGSF11 siRNA (KD: target knocked down, specificity control).
Test [8] has as its target CL-11 (C). Description: FACS on CL-11 cells (do not express IGSF11; negative cell line) treated with IGSF11 siRNA (KD).
The target in test [9] is T4, human IGSF11 (VSIG3) expressed on the …. Description: FACS on DMS 273 cells treated with scrambled control siRNA (SC).
Test [10] addresses CL-11 (C). Description: FACS on CL-11 cells (do not express IGSF11; negative cell line) treated with scrambled control siRNA (SC).

Here are results for 15 molecules from patent publication US20210061908A1 (IOMX THERAPEUTICS, published 2021).

Substitutions are numbered along the chain they refer to.

One may read the EC50 as the concentration giving half of the maximal effect.

B1: A-008 (human IgG1 format) (antibody, V domains shown)
VH: QLQLQESGPGLVKPSETLSLTCTVSGGSISSSGYYWGWIRQPPGKGLEWIGSIYYSGSTYYNPSLKSRVTISVDTSKNQFSLKLSSVTAADTAVYYCARHRVRFGEFDAFDIWGQGTMVTVSS
VL: QAVLTQPPSVSGAPGERVTLSCTGTSSNVGADFDVHWYQQFPGTAPRLLIFGSDNRPSGVPDRFSGSKSGTSASLAITGLQVEDEADYYCQAYDVRLSGWVFGGGTKLTVL
notes: human IgG1 format
As to B1, in test [1], the EC50 was in the range of 20 to 50 pM.

B2: A-025 (human IgG1 format) (antibody, V domains shown)
VH: QVQLVQSGAEVKKPGSSVKVSCKASGGTFSSYAISWVRQAPGQGLEWMGGIIPIFGTANYAQKFQGRVTITADESTSTAYMELTSLRSEDTAVYYCARGGWLRQNWFDPWGQGTLVTVSS
VL: SSELTQDPAVSVALGQTVRITCQGDSLRSYYASWYQQKPGQAPVLVIYGKNNRPSGIPDRFSGSSSGNTASLTITGAQAEDEADYYCNSRDSSGNHPRVFGGGTKLTVL
notes: human IgG1 format
B2 showed an EC50 in test [1] of 50 to 1000 pM.

B3: A-009 (human IgG1 format) (antibody, V domains shown)
VH: B2 VH with T84S, G100R, W101G, L102F, R103G, Q104E, N105L, W106Y, P109Y
VL: ETTLTQSPATLSVSPGERATLSCRASQGVRSNIAWYQQKPGQAPRLLIYDSSTRATGIPARFSGSGSGTEFTLTISSLQSEDFAVYSCQQYKNWPRTFGQGTKVEIK
notes: human IgG1 format
In [1], B3 gave an EC50 of 50 to 1000 pM.

B4: A-001 (human IgG1 format) (antibody, V domains shown)
VH: EVQLVESGGGLVKPGGSLRLSCAASGFTFSSYSMNWVRQAPGKGLEWVSSISSSSSYIYYADSVKGRFTISRDNAKNSLYLQMNSLRAEDTAVYYCVRSIIVQALGITSVFDIWGQGTMVTVSS
VL: AIRLTQSPSSLSASVGDRVTISCRASQIISNHLNWYQQKPGKAPKLLIYAASRLQTGVPSRFSGSGSETDYTLTISSLQPEDFATYYCQQSYSNPRTFGHGTKVEIK
notes: human IgG1 format
B4 registered an EC50 in test [1] of under 20 pM.

B5: A-003 (human IgG1 format) (antibody, V domains shown)
VH: VQLVQSGAEVKKPGSSVKVSCKASGGTFSSYAISWVRQAPGQGLEWMGGIIPIFGTANYAQKFQGRVTITADESTSTAYMELSSLRSEDTAVYYCASPRIQLWAAGGFDYWGQGTLVTVSS
VL: QSALTQPASVSGSPGQSITISCTGTSSDVGGYNLVSWYQQHPGKAPKLMIYDVSNRPSGVSNRFSGSKSGNTASLTISGLQAEDEADYYCSSFTTSTTLVFGGGTKLTVL
notes: human IgG1 format
Take B5: the EC50 in test [1] lay in the range of 50 to 1000 pM.

B6: A-028 (scFv format) (scFv, V domains shown)
VH: QVQLVQSGAEVKKPGSSVKVSCKASGGTFSSYAISWVRQAPGQGLEWMGGIIPIFGTANYAQKFQGRVTITADESTSTAYMELSSLRSEDTAVYYCARVGVEYQLLWYFDYWGQGTLVTVSS
VL: DIQMTQSPSSLSASVGDRVTLTCRTSQTISNYLNWYQQKPGKAPKLLVYAASNLQSWVPSRFSGSGSGTDFTLTISSLQPEDFATYYCQQSYNASFGGGTKVEFK
notes: scFv
Take B6: the “relative fluorescent units (RFU), ELISA” value in test [2] and in test [3] was 0.1 to 0.5 rfu in each case.

B7: A-029 (human IgG1 format) (antibody, V domains shown)
VH: QVQLVQSGAEVKKPGSSVKVSCKASGGTFSSYAISWVRQAPGQGLEWMGGIIPIFGTANYAQKFQGRVTITADESTGTAYMELSSLRSEDTAVYYCARSYYYYYGMDVWGQGTTVTVSS
VL: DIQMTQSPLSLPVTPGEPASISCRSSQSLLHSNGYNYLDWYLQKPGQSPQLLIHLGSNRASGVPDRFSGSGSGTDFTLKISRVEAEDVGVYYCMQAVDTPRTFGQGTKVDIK
notes: human IgG1 format
In test [1], B7 registered an EC50 of 50 to 1000 pM.

B8: A-029 (scFv format) (scFv, V domains shown)
VH: B7 VH
VL: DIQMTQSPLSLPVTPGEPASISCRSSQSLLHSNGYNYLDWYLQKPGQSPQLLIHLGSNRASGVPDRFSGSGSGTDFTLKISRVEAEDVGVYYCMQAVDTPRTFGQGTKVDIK
notes: scFv
For the molecule B8, the “relative fluorescent units (RFU), ELISA” value in test [2] and in test [3] was 0.1 to 0.5 rfu throughout.

B9: A-010 (human IgG1 format) (antibody, V domains shown)
VH: QVQLVQSGAEVKKPGASVKVSCKASGYTFTSYGISWVRQAPGQGLEWMGWISAYNGNTNYAQKLQGRVTMTTDTSTSTAYMELRSLRSDDTAVYYCARVPAWSGQFDYWGQGTLVTVSS
VL: QSALTQPASVSGSPGQSITISCTGSSSDVGGYNYVSWYQQYPGKAPKLMIYDVRSRPSGVSNRFSGSKSGNTASLTISGLQAEDEADYYCTSYTSSNTLVIFGGGTKVTVL
notes: human IgG1 format
As to B9, the EC50 in [1] is under 20 pM.

B10: A-027 (scFv format) (scFv, V domains shown)
VH: QVQLVQSGAEVKKPGSSVKVSCKASGGTFSSYAISWVRQAPGQGLEWMGGIIPIFGTANYAQKFQGRVTITADKSTSTAYMELSSLRSEDTAVYYCARARGSTWGYFDYWGQGTLVTVSS
VL: EIVLTQSPASLSLSPGERVTLSCRASQSVSNYLAWYQQKPGQAPRLLIYDASNRATGIPARFSGSGSGTDFTLTISSLEPEDFAVYYCQQRDNWPLTFGGGTKVEIK
notes: scFv
On to B10, for which the “relative fluorescent units (RFU), ELISA” value in test [2] and in test [3] was 0.1 to 0.5 rfu each time.

B11: A-016 (human IgG1 format) (antibody, V domains shown)
VH: QVQLQESGAEVKKPGASVKVSCKASGYTFTGYYMHWVRQAPGQGLEWMGGIIPIFGTANYAQKFQGRVTITADESTSTAYMELSSLRSEDTAVYYCAGAGMELTRSGAYYYYGMDVWGQGTTVTVSS
VL: QSALTQPASVSGSPGQSITISCTGTSSDIGGYTFVSWYQQHPGKAPKVMIHDVNNRPSGISNRFSGSKSGNTASLTISGLQAEDEADYYCSSVTSTNTYVFGTGTKVTVL
notes: human IgG1 format
B11: the EC50 in [1] was under 20 pM.

B12: A-023 (human IgG1 format) (antibody, V domains shown)
VH: QVQLVQSGAEVKKPGSSVKVSCKASGGTFSSYAISWVRQAPGQGLEWMGGIIPIFGTANYAQKFQGRVTITADESTSTAYMELSSLRSEDTAVYYCARPKYSSGWFYYYGMDVWGQGTTVTVSS
VL: QSVLTQPPSVSAAPGQKVTISCSGSSSNIGNNYVSWYQQLPGTAPKLLIYDNNKRPSGIPDRFSGSKSGTSATLGITGLQTGDEADYYCGTWDSSLSVVFGGGTKLTVL
notes: human IgG1 format
Regarding B12, the EC50 in test [1] was in the range of 50 to 1000 pM.

B13: A-035 (human IgG1 format) (antibody, V domains shown)
VH: QVQLVQSGAEVKKPGASVKVSCKASGYTFTGYYMHWVRQAPGQGLEWMGWINPNSGNTGYAQKFQGRVTMTRNTSISTAYMELSSLRSEDTAVYYCARGRLERGYWYFDLWGRGTLVTVSS
VL: NFMLTQPHSVSESPGRTVTISCTRSSGSITSNYVQWYQQRPGSAPTILIYEDKERPSEVPDRFSGSIDISSNSASLTISGLKTEDEADYYCQSYGGTSQGVLFGGGTKVTVL
notes: human IgG1 format
In the case of B13, the EC50 in test [4] was over 50000 pM; in test [1], 20 to 50 pM.

B14: A-033 (human IgG1 format) (antibody, V domains shown)
VH: QVQLVQSGAEVKKPGASVKVSCKASGYTFTSYGISWVRQAPGQGLEWMGWISAYNGNTNYAQKLQGRVTMTTDTSTSTAYMELRSLRSDDTAVYYCARDHSIVGATTFDYWGQGTLVTVSS
VL: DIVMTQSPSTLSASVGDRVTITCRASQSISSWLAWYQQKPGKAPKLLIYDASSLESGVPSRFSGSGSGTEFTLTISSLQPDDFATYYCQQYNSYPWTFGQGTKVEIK
notes: human IgG1 format
B14 registered an EC50 in [1] of 20 to 50 pM.

B15: A-015 (human IgG1 format) (antibody, V domains shown)
VH: not shown
VL: QPVLTQSPSASASLGASVKLTCTLSSGHTNYAIAWRQQQPGKAPRYLMLLNSDGSHTRGGGIPDRFSGSSSGAERYLTISSLQSEDEADYYCMIWHNNAWVFGGGTKLAVL
notes: human IgG1 format
For the molecule B15, the percentage binding in test [5] turned out to be 1.6%; in [6], 1.17%; in test [7], 1.3%; in test [8], 2.91%; in test [9] it was 5.97%; in test [10], 1.95%.
